In patent US20230257472A1 (JIANGSU HENGRUI MEDICINE, published 2023):
Positions count from the first letter of the chain named.

T1: human CD70 on cells (CD70-positive 786-O cells, Raji cells, CHO-S cells expressing human full-length CD70, … (human, UniProt P32970 1-193))
T1 construct: whole, on cells; Endogenous on 786-O, Raji and U266 cells; transfected full-length human CD70 on CHO-S cells; also called CD70-positive cells
T1 sequence (looked up): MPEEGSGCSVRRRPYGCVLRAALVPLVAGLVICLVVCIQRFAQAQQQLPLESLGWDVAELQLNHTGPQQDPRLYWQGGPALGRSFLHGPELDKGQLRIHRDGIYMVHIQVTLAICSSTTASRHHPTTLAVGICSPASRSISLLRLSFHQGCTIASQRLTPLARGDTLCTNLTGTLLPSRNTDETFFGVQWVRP

T2: His-tagged CD70 protein extracellular domain (His-TNC-CD70) (human)
T2 construct: Expressed in 293 cells; also called human His-TNC-CD70 antigen; human CD70 antigen
T2 chain: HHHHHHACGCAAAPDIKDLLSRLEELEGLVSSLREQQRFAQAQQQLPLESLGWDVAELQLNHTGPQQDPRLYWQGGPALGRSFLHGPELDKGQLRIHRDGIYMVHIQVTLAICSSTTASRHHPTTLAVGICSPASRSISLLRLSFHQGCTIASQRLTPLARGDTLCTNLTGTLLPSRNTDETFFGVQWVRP

B1: huB7002 (antibody, human IgG1, kappa, V domains shown)
VH: EVQLVQSGSELKKPGASVKVSCKASGYTFTNYGMNWVRQAPGQGLEWMGWINTYTGEPTYADEFKGRFVFSLDTSVSTAYLQISSLKAEDTAVYYCARGDSFTTEILRNWYFDVWGQGTTVTVSS
VL: DIQMTQSPSSLSASVGDRVTITCGASENIYGALNWYQQKPGKVPKLLIYGATNLADGVPSRFSGSGSGTDFTLTISSLQPEDVATYYCQNVLSTPWTFGGGTKVEIKR
notes: Humanized IgG1
B2: huF4011 (antibody, human IgG1, kappa, V domains shown)
VH: EVQLVQSGAEVKKPGSSVKVSCKASGDTFPRYNMHWVRQAPGQGLEWMGAIFPGTGETSYNQNFKGRVTLTADKSTSTAYMELSSLRSEDTAVYYCARNSYYDYAWFTYWGQGTLVTVSS
VL: DIVMTQSPDSLAVSLGERATINCRASKSVSSSGYSFMHWYQQKPGQPPKLLISLADNLESGVPDRFSGSGSGTDFTLTISSLQAEDVAVYYCQHSREFPPTFGQGTKLEIKR
notes: Humanized IgG1
B3: huB1010 (antibody, human IgG1, kappa, V domains shown)
VH: EVQMVQSGAEVKKPGASVKVSCKASGYTFTTYNIHWVRQAPGQGLEWMGDIYPGTGDASYNQKFRDRVTMTRDTSTSTVYMELSSLRSEDTAVYYCATFSRFDGWFAYWGQGTLVTVSS
VL: B2 VL with K27R, S31T, F36Y, S53Y, F98L, P100Y, Q104G, L108V
notes: Humanized IgG1

Legend:
[1] = target: T1, human CD70 on cells (CD70-positive …); experiment: flow cytometry on CD70-positive 786-O cells, Alexa Fluor 488 goat anti-human (H+L) detection
Method: (§1) 786-O cells (ATCC, CRL-1932) or Raji cells (ATCC, CCL-86) at 1×10⁶ cells/mL were blocked with 1% BSA PBS buffer, followed by the addition of diluted anti-CD70 antibody samples at different concentrations were added, and the mixture was incubated for 1 h. After the plate was washed twice, Alexa Fluor 488-goat anti-human (H+L) antibody (Invitrogen, CAT #A 11013) was added, and the mixture was incubated for 1 h. After the plate was washed twice, fluorescence signals were read using a flow cytometer.

[2] = target: T1, human CD70 on cells (CD70-positive …); experiment: flow cytometry competition on CHO-S cells expressing human full-length CD70; blocked ligand: biotin-labeled CD27-Fc, Alexa Fluor 488 streptavidin detection
Method: The cell-blocking activity of the anti-CD70 antibodies was assayed by flow cytometry. CHO-S cells expressing human full-length CD70 (Invitrogen, R80007) at 1×10⁶ cells/mL were blocked with 1% BSA PBS buffer, followed by the addition with diluted anti-CD70 antibody samples at different concentrations and biotin-labeled CD27-Fc (set forth in SEQ ID NO: 84), and the mixture was incubated for 1 h. After the plate was washed twice, Alexa Fluor 488-streptavidin (Invitrogen, CAT #S11223) was added, and the mixture was incubated for 1 h. After the plate was washed twice, fluorescence signals were read using a flow cytometer.

[3] = target: T3, fusion protein of the murine CD70 protein extracellular domain and Human-IgG1-Fc (mouse CD70-Fc) (mouse); experiment: ELISA, plate coated with 1 µg/mL mouse CD70-Fc, HRP goat anti-human F(ab')2 detection
T3 construct: also called mouse CD70 antigen
Method: (§2) The binding ability of the anti-CD70 antibodies was determined by the amount of the antibodies bound to the CD70 antigen protein immobilized on the ELISA plate. 1 μg/mL human CD70-Fc (set forth in SEQ ID NO: 2), monkey CD70-Fc (set forth in SEQ ID NO: 82) and mouse CD70-Fc (set forth in SEQ ID NO: 83) were coated, incubated and blocked. […] OD450 values were measured on a microplate reader.

[4] = target: T2, His-tagged CD70 protein extracellular …; experiment: SPR Biacore T200, antibody captured by anti-human Fc, His-TNC-CD70 in flow, 1:1 model
Method: The affinity of the chimeric and humanized antibodies of the present disclosure for the human CD70 antigen was tested using a Biacore instrument. The procedures are as follows:
The human Fc capture molecules were covalently coupled to a CM5 biosensor chip (CAT #BR-1005-30, GE) according to the method described in the instructions of the human Fc capture kit (CAT #BR-1008-39, GE) for affinity capture of the antibodies to be tested. Then, a human His-TNC-CD70 antigen (set forth in SEQ ID NO: 1) flowed through the surface of the chip, and the reaction signal was detected in real time using a Biacore T200 instrument to obtain association and dissociation curves. After the dissociation was completed for each cycle, the biochip was washed and regenerated with a regeneration solution configured in the human antibody capture kit (GE). Data were fitted using a 1:1 model.

[5] = target: T4, fusion protein of the monkey CD70 protein extracellular domain and Human-IgG1-Fc (monkey CD70-Fc) (monkey); experiment: ELISA, plate coated with 1 µg/mL monkey CD70-Fc, HRP goat anti-human F(ab')2 detection
T4 construct: also called monkey CD70 antigen
Method: as §2

[6] = target: fusion protein of the CD70 protein extracellular domain and Human-IgG1-Fc (human CD70-Fc) (human); experiment: ELISA, plate coated with 1 µg/mL human CD70-Fc, HRP goat anti-human F(ab')2 detection
Method: as §2

[7] = target: T1, human CD70 on cells (CD70-positive …); experiment: cell-based or functional assay
[8] = target: T1, human CD70 on cells (CD70-positive …); experiment: flow cytometry on CD70-positive Raji cells, Alexa Fluor 488 goat anti-human (H+L) detection
Method: as §1

T4 sequence (chain, as listed by the source limits assumed): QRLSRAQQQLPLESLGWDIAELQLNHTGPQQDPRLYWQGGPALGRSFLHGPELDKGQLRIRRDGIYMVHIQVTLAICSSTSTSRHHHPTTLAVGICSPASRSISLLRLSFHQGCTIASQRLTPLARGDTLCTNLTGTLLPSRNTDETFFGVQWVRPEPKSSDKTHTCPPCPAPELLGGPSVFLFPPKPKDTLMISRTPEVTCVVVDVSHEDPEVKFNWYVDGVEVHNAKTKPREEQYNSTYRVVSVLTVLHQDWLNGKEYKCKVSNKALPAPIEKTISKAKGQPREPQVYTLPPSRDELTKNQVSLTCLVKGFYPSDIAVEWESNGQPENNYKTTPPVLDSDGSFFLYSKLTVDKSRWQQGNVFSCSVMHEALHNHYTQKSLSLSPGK
fusion protein of the CD70 protein extracellular domain and Human-IgG1-Fc (human CD70-Fc) (human), sequence (chain, as listed by the source limits assumed): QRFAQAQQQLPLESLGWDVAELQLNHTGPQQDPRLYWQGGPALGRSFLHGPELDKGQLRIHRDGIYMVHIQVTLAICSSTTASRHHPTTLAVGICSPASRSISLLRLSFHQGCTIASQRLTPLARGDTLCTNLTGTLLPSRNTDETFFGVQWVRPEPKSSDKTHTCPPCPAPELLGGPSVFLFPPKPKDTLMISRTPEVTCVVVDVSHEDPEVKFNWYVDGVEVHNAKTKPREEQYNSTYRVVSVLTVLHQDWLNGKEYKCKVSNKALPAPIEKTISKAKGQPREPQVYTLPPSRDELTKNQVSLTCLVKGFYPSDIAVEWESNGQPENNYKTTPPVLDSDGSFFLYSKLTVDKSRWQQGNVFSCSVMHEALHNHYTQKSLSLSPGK
T3 sequence (chain, as listed by the source limits assumed): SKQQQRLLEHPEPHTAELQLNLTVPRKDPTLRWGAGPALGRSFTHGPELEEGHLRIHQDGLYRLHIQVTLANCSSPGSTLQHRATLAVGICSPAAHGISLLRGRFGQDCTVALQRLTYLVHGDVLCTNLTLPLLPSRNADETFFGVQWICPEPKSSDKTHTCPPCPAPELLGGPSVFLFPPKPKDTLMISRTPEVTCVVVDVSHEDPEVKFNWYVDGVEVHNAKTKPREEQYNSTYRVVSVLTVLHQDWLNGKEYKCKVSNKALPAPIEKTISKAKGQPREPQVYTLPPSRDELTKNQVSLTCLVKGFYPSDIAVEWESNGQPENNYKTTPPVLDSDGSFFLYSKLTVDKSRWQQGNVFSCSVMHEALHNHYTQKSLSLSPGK

Binder | EC50 (read off the curve) [1] | IC50 (read off the curve) [2] | binding result [3] | Kd [4] | koff [4] | kon [4] | EC50 (read off the curve) [5] | binding result [6] | IC50 (ng/mL), inhibition of IL-8 secretion mediated by CD70/CD27 binding (U266 cells + HT1080/CD27 cells) [7] | Imax (%), maximum inhibition rate of IL-8 secretion from CD27 cells [7] | EC50 (read off the curve) [8] | EC50 (read off the curve) [6] | binding result [5]
B1 | ~0.02 µg/mL | ~0.4 µg/mL | no binding (tested: 10 µg/mL (log 1)) | 0.0286 nM | 0.000174 s⁻¹ | 6.09e+06 M⁻¹ s⁻¹ | ~0.03 µg/mL | binds | 21 ng/mL | 98.7% |  |  | 
B2 | ~0.03 µg/mL | ~0.4 µg/mL | no binding (tested: 10 µg/mL (log 1)) | 0.0465 nM | 0.000145 s⁻¹ | 3.12e+06 M⁻¹ s⁻¹ | ~0.05 µg/mL |  | 14.2 ng/mL | 93.8% | ~0.02 µg/mL | ~0.03 µg/mL | 
B3 | ~0.02 µg/mL | ~0.4 µg/mL | no binding (tested: 10 µg/mL (log 1)) | 0.0355 nM | 0.00013 s⁻¹ | 3.67e+06 M⁻¹ s⁻¹ |  |  |  |  | ~0.02 µg/mL | ~0.04 µg/mL | binds
